Target: T1, recombinant mouse HEXB (beta-subunit of beta-hexosaminidase) (mouse, UniProt P20060 32-536)
T1 sequence (looked up): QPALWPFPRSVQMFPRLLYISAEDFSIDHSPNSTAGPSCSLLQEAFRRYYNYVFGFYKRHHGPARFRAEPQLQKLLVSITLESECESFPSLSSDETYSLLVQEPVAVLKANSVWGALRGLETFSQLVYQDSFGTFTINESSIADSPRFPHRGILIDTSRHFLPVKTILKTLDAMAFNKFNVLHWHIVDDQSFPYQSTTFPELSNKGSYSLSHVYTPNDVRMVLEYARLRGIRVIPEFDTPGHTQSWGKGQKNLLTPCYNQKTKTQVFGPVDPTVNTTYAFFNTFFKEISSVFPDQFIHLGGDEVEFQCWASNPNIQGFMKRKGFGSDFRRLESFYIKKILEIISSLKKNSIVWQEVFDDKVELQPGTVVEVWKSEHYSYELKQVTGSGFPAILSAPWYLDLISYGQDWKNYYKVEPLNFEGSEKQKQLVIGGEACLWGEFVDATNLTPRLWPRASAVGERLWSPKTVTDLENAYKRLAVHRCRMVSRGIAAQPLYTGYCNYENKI
Test: binding to a coated plate, bound protein read by HexA enzymatic activity

Kd: 166 nM
B1: mouse-Transferrin-G-CSF-HEXA (mTr-G-CSF-HEXA) (other)
chain: HAIYPRHGSVPLVTVSALPPSLPLPRSFLLKSLEQVRKIQASGSVLLEQLCATYKLCHPEELVLLGHSLGIPKASLSGCSSQALQQTQCLSQLHSGLCLYQGLLQALSGISPALAPTLDLLQLDVANFATTIWQQMENLGVAPTVQPTQSAMPAFTSAFQRRAGGVLAISYLQGFLETARLALHHLAGSGSDRVYIHPFHLGSGSGGSGGSGGSGSGGSGSGGSGGSGLWPWPQYIQTYHRRYTLYPNNFQFRYHVSSAAQAGCVVLDEAFRRYRNLLFGSGSWPRPSFSNKQQTLGKNILVVSVVTAECNEFPNLESVENYTLTINDDQCLLASETVWGALRGLETFSQLVWKSAEGTFFINKTKIKDFPRFPHRGVLLDTSRHYLPLSSILDTLDVMAYNKFNVFHWHLVDDSSFPYESFTFPELTRKGSFNPVTHIYTAQDVKEVIEYARLRGIRVLAEFDTPGHTLSWGPGAPGLLTPCYSGSHLSGTFGPVNPSLNSTYDFMSTLFLEISSVFPDFYLHLGGDEVDFTCWKSNPNIQAFMKKKGFTDFKQLESFYIQTLLDIVSDYDKGYVVWQEVFDNKVKVRPDTIIQVWREEMPVEYMLEMQDITRAGFRALLSAPWYLNRVKYGPDWKDMYKVEPLAFHGTPEQKALVIGGEACMWGEYVDSTNLVPRLWPRAGAVAERLWSSNLTTNIDFAFKRLSHFRCELVRRGIQAQPISVGYCEQEFEQT
